Data on two molecules can be found in patent US20240301385, “DNA MODIFYING ENZYMES AND ACTIVE FRAGMENTS AND VARIANTS THEREOF AND METHODS OF USE” (LIFEEDIT THERAPEUTICS, INC., published 2024).

The target of the series is T1, APG30125-L32-nAPG07433.1 (synthetic).
T1 chain: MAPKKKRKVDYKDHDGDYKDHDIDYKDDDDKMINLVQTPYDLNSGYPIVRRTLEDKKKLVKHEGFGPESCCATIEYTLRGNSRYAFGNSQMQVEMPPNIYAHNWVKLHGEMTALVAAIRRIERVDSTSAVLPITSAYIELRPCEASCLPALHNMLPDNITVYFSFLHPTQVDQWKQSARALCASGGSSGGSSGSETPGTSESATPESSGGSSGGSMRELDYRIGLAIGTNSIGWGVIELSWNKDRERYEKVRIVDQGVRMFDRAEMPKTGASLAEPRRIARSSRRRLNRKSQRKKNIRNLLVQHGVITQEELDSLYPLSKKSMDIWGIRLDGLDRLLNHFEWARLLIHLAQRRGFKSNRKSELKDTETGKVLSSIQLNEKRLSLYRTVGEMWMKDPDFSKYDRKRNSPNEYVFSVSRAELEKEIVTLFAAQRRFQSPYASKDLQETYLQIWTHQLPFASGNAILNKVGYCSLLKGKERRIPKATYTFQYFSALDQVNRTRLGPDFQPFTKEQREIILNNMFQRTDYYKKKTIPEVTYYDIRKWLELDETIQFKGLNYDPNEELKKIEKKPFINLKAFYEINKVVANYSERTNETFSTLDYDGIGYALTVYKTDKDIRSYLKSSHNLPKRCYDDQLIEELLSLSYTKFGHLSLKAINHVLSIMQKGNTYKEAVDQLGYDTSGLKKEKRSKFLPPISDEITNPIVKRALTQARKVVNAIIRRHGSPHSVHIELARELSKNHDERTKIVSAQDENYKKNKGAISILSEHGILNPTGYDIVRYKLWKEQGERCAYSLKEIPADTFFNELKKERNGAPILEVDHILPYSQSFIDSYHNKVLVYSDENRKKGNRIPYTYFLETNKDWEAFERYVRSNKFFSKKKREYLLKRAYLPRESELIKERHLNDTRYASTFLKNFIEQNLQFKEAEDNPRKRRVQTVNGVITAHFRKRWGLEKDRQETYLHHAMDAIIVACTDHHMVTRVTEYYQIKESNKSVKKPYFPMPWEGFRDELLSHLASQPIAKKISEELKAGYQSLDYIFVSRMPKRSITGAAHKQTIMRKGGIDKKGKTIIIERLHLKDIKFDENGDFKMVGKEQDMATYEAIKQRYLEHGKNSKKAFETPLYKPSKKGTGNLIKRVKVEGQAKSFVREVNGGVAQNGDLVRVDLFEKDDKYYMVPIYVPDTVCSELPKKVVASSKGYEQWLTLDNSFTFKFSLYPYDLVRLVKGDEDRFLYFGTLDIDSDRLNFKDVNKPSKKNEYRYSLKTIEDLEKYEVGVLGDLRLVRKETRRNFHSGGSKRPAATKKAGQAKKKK
Briefly: cell_activity; HEK293FT; PAM SEQ 152. Particulars: tags: SV40 NLS, 3xFLAG N-term; nucleoplasmin NLS C-term. An outline of the steps: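 Editing read out by next-generation sequencing (MiSeq 2×250) of PCR amplicons spanning the target site, analysed for INDELs or % cytosine conversion per position (position 1 nearest PAM).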

B1: SGN000929 sgRNA ; SGN000929 target (ssRNA ; dsDNA)
RNA: AUCUGGAGGGAACUUACAGCAUAUGGUCAUAGUUCCAUGAAAGCCAAAAGUGGCUUUGAUGUUUCUAUGAUAAGGGUUUCGGCCCGUGGCGUCGGGGAUCGCCUGCCCAUUCCGAUGGGCUUCUCCCCAUUUAUU
DNA 1: ATCTGGAGGGAACTTACAGCATATG
DNA 2: CATATGCTGTAAGTTCCCTCCAGAT
B1 came in with an activity of 7.39 % mutated reads.

B2: SGN000169 sgRNA ; SGN000169 target (ssRNA ; dsDNA)
RNA: CACAUCUCGAGCAAGACGUUGUCAUAGUUCCAUUAAAGCCAAAAGUGGCUUUGAUGUUUCUAUGAUAAGGGUUUCGACCCGUGGCGUCGGGGAUCGCCUGCCCAUUGAAAUGGGCUUCUCCCCAUUUAUU
DNA 1: CACATCTCGAGCAAGACGTT
DNA 2: AACGTCTTGCTCGAGATGTG
With B2, the activity stood at 6.89 % mutated reads.
